For series [1], the target named is T1, rPAI-123 (recombinant truncated porcine plasminogen activator inhibitor-1 isoform; RCL deleted, partial deletion of the heparin-binding domain).
T1 chain: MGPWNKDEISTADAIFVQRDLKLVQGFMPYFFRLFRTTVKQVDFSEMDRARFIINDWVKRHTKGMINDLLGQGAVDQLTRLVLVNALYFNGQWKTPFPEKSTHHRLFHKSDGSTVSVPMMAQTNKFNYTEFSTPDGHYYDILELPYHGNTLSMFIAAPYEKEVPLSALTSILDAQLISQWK

The target of series [2] is T2, rPAI-1Δ23 (recombinant truncated porcine plasminogen activator inhibitor-1 isoform; RCL deleted, heparin-binding domain deleted).
T2 chain: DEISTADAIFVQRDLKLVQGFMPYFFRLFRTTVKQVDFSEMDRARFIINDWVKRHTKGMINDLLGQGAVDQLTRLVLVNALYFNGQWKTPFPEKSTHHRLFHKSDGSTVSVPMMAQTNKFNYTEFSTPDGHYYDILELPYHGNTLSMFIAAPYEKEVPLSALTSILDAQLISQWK

This note sets out measurements from patent US20070191277.

B1: plasminogen (protein)
chain: EPLDDYVNTQGASLFSVTKKQLGAGSIEECAAKCEEDEEFTCRAFQYHSKEQQCVIMAENRKSSIIIRMRDVVLFEKKVYLSECKTGNGKNYRGTMSKTKNGITCQKWSSTSPHRPRFSPATHPSEGLEENYCRNPDNDPQGPWCYTTDPEKRYDYCDILECEEECMHCSGENYDGKISKTMSGLECQAWDSQSPHAHGYIPSKFPNKNLKKNYCRNPDRELRPWCFTTDPNKRWELCDIPRCTTPPPSSGPTYQCLKGTGENYRGNVAVTVSGHTCQHWSAQTPHTHNRTPENFPCKNLDENYCRNPDGKRAPWCHTTNSQVRWEYCKIPSCDSSPVSTEQLAPTAPPELTPVVQDCYHGDGQSYRGTSSTTTTGKKCQSWSSMTPHRHQKTPENYPNAGLTMNYCRNPDADKGPWCFTTDPSVRWEYCNLKKCSGTEASVVAPPPVVLLPDVETPSEEDCMFGNGKGYRGKRATTVTGTPCQDWAAQEPHRHSIFTPETNPRAGLEKNYCRNPDGDVGGPWCYTTNPRKLYDYCDVPQCAAPSFDCGKPQVEPKKCPGRVVGGCVAHPHSWPWQVSLRTRFGMHFCGGTLISPEWVLTAAHCLEKSPRPSSYKVILGAHQEVNLEPHVQEIEVSRLFLEPTRKDIALLKLSSPAVITDKVIPACLPSPNYVVADRTECFITGWGETQGTFGAGLLKEAQLPVIENKVCNRYEFLNGRVQSTELCAGHLAGGTDSCQGDSGGPLVCFEKDKYILQGVTSWGLGCARPNKPGVYVRVSRFVTWIEGVMRNN
For the protein B1, the “plasminogen cleavage (immunoblot probed for mini-plasminogen)” value in series [1] is on record as “the rPAI-123 recombinant protein cleaves plasminogen”; in series [2], “the rPAI-1Δ23 protein did not cleave plasminogen, even when increasing concentrations of the recombinant protein were added”.
